Experiment: label from the status in PepcDB records
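Further: failed if final PepcDB status was selected cloned or expressed and not failed if soluble or beyond.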

| Sequence | protein production |
| --- | --- |
| MRDRVRWRVLSLPPLAQWREVMAALEVGPEAALAYWHRGFRRKEDLDPPLALLPLKGLREAAALLEEALRQGKRIRVHGDYDADGLTGTAILVRGLAALGADVHPFIPHRLEEGYGVLMERVPEHLEASDLFLTVDCGITNHAELRELLENGVEVIVTDHHTPGKTPPPGLVVHPALTPDLKEKPTGAGVAFLLLWALHERLGLPPPLEYADLAAVGTIADVAPLWGWNRALVKEGLARIPASSWVGLRLLAEAVGYTGKAVEVAFRIAPRINAASRLGEAEKALRLLLTDDAAEAQALVGELHRLNARRQTLEEAMLRKLLPQADPEAKAIVLLDPEGHPGVMGIVASRILEATLRPVFLVAQGKGTVRSLAPISAVEALRSAEDLLLRYGGHKEAAGFAMDEALFPAFKARVEAYAARFPDPVREVALLDLLPEPGLLPQVFRELALLEPYGEGNPEPLFLLFGAPEEARRLGEGRHLAFRLKGVRVLAWKQGDLALPPEVEVAGLLSENAWNGHLAYEVQAVDLRKPEALEGGIAPFAYPLPLLEALARARLGEGVYVPEDNPEGLDYARKAGFRLLPPEEAGLWLGLPPRPVLGRRVEVALGREARARLSAPPVLHTPEARLKALVHRRLLFAYERRHPGLFSEALLAYWEVNRVQEPAGSP | not failed |
| MRQVFSTDQEYKADKSPENLFPLTEVTRKMEYEERFDQAVRVTGVGLFVNLGLTIFKLLAGILGNSTAMVADAVHSLSDFLTDVVVIFGFKIAKKPVDESHNYGHGKIETLSASLVGLMLLLVAGQILYYGVQKTLMFIEAGTLEQPAIIALYAALASVISKEIMYQYTILKARKINSMALTANAWHHRSDAFSSFCTMIGIGAAVFLGGKWVVLDPLMAVFLSFIILKVSLKIFHSSINELVEASLDEKTESEIRQIIQKTEGVKALSNLKTRRIGNNIAVDIRIKVDNALDIGEANRISIHVEHNLKKAFGPYTYVLVKAEPYEREPWGNPEDEKAREHPVNPEKNKVCLRNHSN | failed |
| MRVAIPAEDDRGIKSNVSKHFGRSRYFVFVDIEGEDVKNVEVVEVPFEEHGPGDLPNFIKDHGAKIVLTYGIGRRAIEYFNSLGISVVTGVYGRISDVIKAFIGGKLKIDYDWKEKIEKEH | not failed |
| MILGEIMEVLAFKNQSLIDHVNDMVKYWERIKYRYLKTIKRALEALNIKLDIEKVDEFMKILIKLHDIGKASKIYQRAIINDQEKLMGFRHELVSAYYTYHILLKKFGDKNLAFIGALTVMLHHEPIIMGQIRNLKKKELTAEVVLDKLKKFDGMIEDFEDLIKKLIGYSIGDIIKNDSNKDDIIRFVIEMSVRARHTPNSEKLRFIVGTLLLPLVMCDYKGAESREGKAPKFAEVLEVESYVI | not failed |
| MLNPRIKWSSRKFGNLFDVILHLFFSDTFLFKEIPVDVDQLLVTWDGKLVSCLPTGTRGNYLCKVSSPPGVHRVSVEVIYGGRRIVKTENVPLIDFDISLSLDKNSLLVKLLGYSDPDTISVKLNGTPLTPSRIGPGEYRVDITERGVAEVEVCISGICKRSIINVEPHLSLSDWDPSVWVGRNLYGYQVMEFLGEGGFSYVMKASSPGGVVALKIPKLTQSPASGLTRNVINVLDDLFKEQSALLELSDSPYLVKLVGVHLDRDSVRRALTEPRYYLEYPPMIVMEFMAGGSVSRLVKDDVQFYSDNWKTAVFMIISRISSGLLKIHEKGYVHCDVKPSNILLDREPPPTAGELYERMKRREVNPKLADLGSAVKIGGVPPGVTLEYSSLEQVTSTRYGGVNPRDDVYSLGATIYYLLTKRYLNSPMIPFMEKALGGGGLDNSVYALRDYSTLEAVGLDSKIVRFIKDMTSENRDKRPSSLEVFNFFTSLVN | failed |
| MSICPHIQQVFQNEKSKDGVLKTCNAARYILNHSVPKEKFLNTMKCGTCHEINSGATFMCLQCGFCGCWNHSHFLSHSKQIGHIFGINSNNGLLFCFKCEDYIGNIDLINDAILAKYWDDVCTKTMVPSMERRDGLSGLINMGSTCFMSSILQCLIHNPYFIRHSMSQIHSNNCKVRSPDKCFSCALDKIVHELYGALNTKQASSSSTSTNRQTGFIYLLTCAWKINQNLAGYSQQDAHEFWQFIINQIHQSYVLDLPNAKEVSRANNKQCECIVHTVFEGSLESSIVCPGCQNNSKTTIDPFLDLSLDIKDKKKLYECLDSFHKKEQLKDFNYHCGECNSTQDAIKQLGIHKLPSVLVLQLKRFEHLLNGSNRKLDDFIEFPTYLNMKNYCSTKEKDKHSENGKVPDIIYELIGIVSHKGTVNEGHYIAFCKISGGQWFKFNDSMVSSISQEEVLKEQAYLLFYTIRQVN | failed |
| MKKYLDKLQNMPIGISGTCLAFITLSNSWNLKGINYFKPIAIFLAVCMLSLMILRLIRFPKVMYEELKNPVTGTFYPTMGMVVWLVSGFFYPYFPVVCSWLWIAAVIYHYGIVIFYTIIRIKERKFENIMPTCFIVYTGMITGSVASKGMDGVIPQIPQIAHFMLMFGFIFYTILLPLVLYIVFKSEILDDHKLPTVGIICSPAPLGVVGILTIEPNPNPYMLAWLIITGLILLVVVYGYILKLFKEGFKPSYAAFTFPLAIATLSAFKLSTYFTGLGYAKMANLFKFLGDVEIFIATYVIFFMLLNFLNMFFKAISPKLGEYVEEEEELIGGTLYSK | failed |
| MNRVIACIDSSPCINAIAEAAAWVARQTKRELVLLQILDYYPASYHLGEISGVIGFESNAMLLKELAELEQKQSDLAIDYSNNLLKHISDMILEKYGIQSTKIQEKGDFLEQSFNVLRETDFVIIGKVGERAAEKNKPIGSNVENFIRGANCTVMTVGEHFKIPTRFIFAYEYSPTCLNLMQRIAQSDLLKTLQCHLLYVGDHPEVLKDPEEFLKNAGLDVITVYRYGDVAENILEYQKELGIQMIVLGAFSHSKIHQFFLGSIATSIFRNATVPLLVAK | failed |
| MTIRMIPHPIFSSPTKRRREKPDPPARAGAAQPSGPARMTPQQQTEWQQRLIALLESQPPDDDGAHDLSHLHRVWAVARTLLAHYPDADSIVVMAGSYLHDLVNLPKNHPQRQLASHWSAERARQLLADSGLTEAQLDNLAHAIEAHSYSAAIPPRTLEARIVQDADRMDALGPVGLARMFYVSGRMGRALAHPLDPLAEHRGRDDQAWAIDHIDVKLAKLPGMMQTEAGRAMAERKLEWLFHFRDEFCRDWMARLEHHHHHH | not failed |
| MSLARPLSFHEDRLFPSDPATRSYARGLYALVKDLPIISPHGHTDPSWFATNAPFQDATDLLLAPDHYLFRMLYSQGVSLDALKVRSKAGVPDTDPREAWRVFASHFYLFRGTPSWVWLNHVFSQVFGFTEFLEASNADDYFDRITAALATDAFRPRALFDRFNIETLATTEGPHESLQHHAAIRESGWGGHVITAYRPDAVIDFEDERSPRAFERFAETSGQDVYSWKSYLEAHRLRRQAFIDAGATSSDHGHPTAATADLSDVEAEALFNSLVKGDVTPEKAELFRAQMLTEMAKMSLDDGLVMQIHPGSHRNHNVGLLNSHGRDKGADIPMRTEYVDALKPLLTRLGNDPRLSIILFTLDETTYSRELAPLAGHYPVLKLGPSWWFHDSPEGMMRFREQVTETAGFYNTVGFNDDTRAFLSIPARHDVARRVDSAFLARMVAEHRMDLVEAEELIVDLTYNLPKKAYKLDQRPDWARPATLRAAAEEGHHHHHH | not failed |
| MRSSSSSSVLPSLPNARLRRPAVWIAFLAVAALSLTGCDLFGSNDDEGRRVTTDVVIANSGNFSAQDGSLTLYNPTASTATLKDIEVAFINSLAQHNGRLFVVDNTTSDNAGKITTFDTEQLGPVDQITNLQRSPRRIAFPEENKGYVTNLSRDLDDAPSNFVPDTSTVSVVDLEADSVTKRVDVGRSPEGIAAVARKAFVANSADGTLSVLDAGADTVNTTLSLPDCANPKSVFVDDENEVAVVCQGGGEQASEVLFLSPIEETIKDRVELGAPIGSANGSQSAYYSEGAEELYTISGSQAFGGNGTGEIFRIDTNANALDATLEIPQDDGLIGITAVGYDDVTQDLYVTRLPVGAGGFPLFSANGTALVLDRQGNEVTRFETGNSPGHITFLGDRQ | failed |
| MEHDERTHVPVELRAAGVVLLNERGDILLVQEKGIPGHPEKAGLWHIPSGAVEDGENPQDAAVREACEETGLRVRPVKFLGAYLGRFPDGVLILRHVWLAEPEPGQTLAPAFTDEIAEASFVSREDFAQLYAAGQIRMYQTKLFYADALREKGFPALPV | not failed |
| MQMSEKFKQIRARLRLPVLVAPMLRISGPALVAASCSNGVIGSFPTVNARTPDQLDRWIDEIKQAVSAAGAYDAPYCANILARSDPDKLQADLKILIKHKVEIVLVSTGAPEKYVKPLQDIGCFVIADVASIRHARKALQQGVDGLALLTAGAGGQTGWANGFAFVRAIRDFYDGPLLLAGGVSDGQALWAARTLGCDLGLMGTRFIGTQECDASDGYKAMLVDSSIDDVVLTRGISGIDANFLRPSIIACGLDPQELVAPVSPERAREMFSSYADGMRGPKRWVDLWSAGHTVSGVKVVQSVSEVVDQLAVEYTRAQRATRAPLADADDPAI | failed |
